Measured values as given in patent publication US20260028391A1 (HUMABS BIOMED, published 2026).

B1: MPK86 (antibody, V domains shown)
VH: EVQLVESGGGLVKPGGSLRLSCAASGFSISGYYMIWIRQAPGRGLEWISDISASSTYTDYADSVKGRFTISRDNGQNTVYLQMNNLRADDTALYYCATEQTPSPGPFDLWGQGTLVTVSS
VL: QSVVTQPPSVSGAPGQRVIISCSGRSSNIGAGYDVHWYQHFPGTSPKLLIYRNTNRPSGVPDRFSASTSATSASLAITGLQADDEADYYCQSYDRNLGGWVFGGGTKLTVL
notes: VH and VL only
B2: MPK126 (antibody, V domains shown)
VH: EVQLVESGGGLVKPGGSMRLSCAASGVTLSGYYMIWIRQAPGKGLEWISDISASSTYTDYADSVKGRFTVSRDNSQNTVYLQMNSLRAEDTAVYYCATEQTPSPGPFDLWGQGTLVTVSS
VL: QSVLTQPPSVSGAPGQRVTISCTGSSSNVGAGYDVHWYQQFPGTSPKLLIYRNTNRPSGVPDRFSGFKSGTSASLAITGLEAEDEADYYCQSYDRSLSGWVFGAGTKLTVL
notes: VH and VL only
B3: MPK108 (antibody, V domains shown)
VH: EVQLVESGGGLVRPGQSLRLSCTASGFSISGYFMIWVRQAPGKGLEWISYVSASSTYTNYADSVRGRFTTSRDNGQNSLFLQMDSLTAEDTGVYFCAREQTPSPGPFDSWGQGVLVTVSS
VL: QSVLTQPPSLSGAPGQRITISCTGTSSNIGAGYDVHWYQYLPGTAPKLVIYRNTNRPSGVSGRFSGSKSGTSASLAITGLQTEDEADYYCQSYDKKLDGWVFGGGTKLTVL
notes: VH and VL only
B4: MPK10 (antibody, V domains shown)
VH: EVQLVQSGGGLVKPGGSLRLSCAASGFRFSGYFMIWIRQAPGKGLEWISFISGGSSYTNYADSVKGRFTISRDNVQNTLFLDMNSLRAEDTGVYFCATEQVPTPGPFDLWGQGSLVTVSS
VL: QSVLTQPPSVSGVPGQRVIISCTGSSSNIGAGYDVHWYQQFPGRSPTLLIYRNTNRPSGVPDRFSGFQSGSSASLAITGLQAEDEADYYCQSFDRTLDGWAFGGGTKVTVL
notes: VH and VL only
B5: MPK133 (antibody, V domains shown)
VH: QVQLVQSGGGLVKPGGSLRLSCAASEFSFSGYFMIWIRQAPGKGLEWISYISGSSTYTNYADSVKGRFTISRDNAQNTLYLEMNSLRAEDTGVYYCATEQVPSPGPFDLWGQGTLVTVSS
VL: QSVLTQPPSVSGAPGQRVTISCTGSSSNIGAGYDVHWYQQFPGRSPTLLIYRNTNRPSGVPDRFSGSQSGSSASLAITGLQAEDEADYYCQSYDRTLSGWAFGGGTKVTVL
notes: VH and VL only
B6: MPK18 (antibody, V domains shown)
VH: EVQLVESGGGLVKPGGSLRLSCAASGFTISGYYMIWIRQAPGKGLEWISYISGSSSYTNFGASVKGRFTISRDNGQNTVHLQMTNLRADDTALYYCATEQTPSPGPFDLWGQGTLVTVSS
VL: QSVVTQPPSVSGAPGQRVTISCSGTSSNIGAGYDVHWYQQFPGTSPKLLISRNFNRPSGVPARFSGSKSGSSASLAIAGLQAEDEADYYCQSYDRSLGGWVFGGGTKVTVL
notes: VH and VL only
B7: MPK67 (antibody, V domains shown)
VH: EVQLVESGGGLVKPGGSLRLSCAASGFTISGYYMIWIRQAPGKGLEWISYISGSSSYTNYGASVKGRFTISRDNGQNTVHLQMTNLRADDTALYYCATEQTPSPGPFDLWGQGTLVTVSS
VL: QSVLTQPPSVSGAPGQRVTISCSGTSSNIGAGYDVHWYQQFPGTSPKLLISRNFNRPSGVPARFSGSKSGSSASLAIAGLQPEDEADYYCQSYDRSLGGWVFGGGTKVTVL
notes: VH and VL only
B8: MPK30-v1 (antibody, V domains shown)
VH: EVQLVESGGGLVKPGGSLRLSCAASGFTISGYYMIWIRQAPGKGLEWISFISASSSYINYADSVRGRFTISRDNGRSTVYLQMNSLRPEDTAVYYCATEQVPSPGPFDLWGQGTLVTVSS
VL: QSVLTQPPSVSGAPGQRVTISCTGTSSNIGAGYDVHWYQQFPGRSPKLLIYRNTNRPSGVPDRFSGSKSGSSASLAIAGLQAEDEADYYCQSYDRSLDGWVFGGGTTLTVL
notes: VH and VL only
B9: MPK36-v3 (antibody, V domains shown)
VH: EVQLVESGGGLVKPGGSLRLSCAASFTISGYYMIWIRQAPGKGLEWISYISGSSTYTNYADSVKGRFTISRDNGQNTLYLHMTSLRADDTALYYCATEQTPSPGPFDLWGQGTLVTVSS
VL: QTVVTQPPSVSGAPGQRVTISCSGTSSNIGAGYDVHWYQQFPGTSPKLLIYRNFNRPSGVPDRFSGSKSGSSASLAIAGLQAEDEADYYCQSYDKSLDGWVFGGGTKVTVL
notes: VH and VL only
B10: MPK129 (antibody, V domains shown)
VH: EVQLVESGGGLVKPGGSLRLSCEASGFSLSGYYMIWIRQAPGKGLEWISSISGSGNYIDYADSVKGRFTISRDNGHNTLYLQMNSLRVEDTAVYYCATEQTPSPGPFDHWGQGTLVTVSS
VL: QTVVTQPPSVSGAPGQRVTISCTGTSSNIGTGYDVHWYQQFPGTSPKLLIYRNTNRPSGVPDRFSGSKSGSSASLAIAGLQAEDEADYYCQSYDRSVSGWVFGGGTKLTVL
notes: VH and VL only
B11: MPK99 (antibody, V domains shown)
VH: EVQLVESGGGLVKPGGSLRLSCAASGFTISGYYMIWIRQSPGKGLEWISDISASSSYTDYADSVKGRFTISRDNGQNTVYLQMNSLRAEDTAVYYCATEQVPSPGPFDLWGQGTLVTVSS
VL: QSVVTQPPSVSGAPGLRVTISCSGTSSNIGRGYDVHWYQQFPGQSPKLLIYRNTNRPSGVPDRFSGFKSGSSASLAIAGLQAEDEADYYCQSYDRSLGGWVFGGGTRLIVL
notes: VH and VL only
B12: MPK132-v1 (antibody, V domains shown)
VH: EVQLVESGGGLVKPGGSLRLSCEASGISLSGYYMIWIRQAPGKGLEWISSISSSSNYIDYADSVKGRFTISRHNGQNTLYLQMNSLRVEDTAVYFCATEQTPSPGPFELWGQGILVTVSS
VL: QSVVTQPPSVSGAPGQRVTIFCTGTSSNIGTGYDVHWYQQFPGTSPKLLIYRNTNRPSGVPDRFSGSKSGSSASLAIAGLQAEDEADYYCQSYDRSVSGWVFGGGTKLTVL
notes: VH and VL only
B13: MPK9 (antibody, V domains shown)
VH: EVQLVESGGGLVKPGGSLRLSCAASGFTISGYGMSWFRQAPGKGLEWVSSISASSSYIYYADSTKGRFTISRDNGKQSLYLQMNSLRAEDTAVYYCATSPIEPPYFDLWGRGTLVTVSS
VL: QSVLTQPPSVSGAPGQRVTISCTGSSSNIGAGYDVHWYQQLPGKAPKLLIYGNNNRPSGVPDRFSGSNSGASASLAITGLQAEDEADYFCQSYDRRLSGPVFGRGTKLTVL
notes: VH and VL only
B14: MPK127 (antibody, V domains shown)
VH: QVQLVISGGGLVKPGGSLRLSCAASGFRIDSFSLNWVRQAPGKGLEWLASVSASSSYIDYRDSVAGRFTISRDNAQNSLYLQMDTLRAEDTAVYYCARTNGYETGSFDVWGQGTLVTVAS
VL: QSVLTQPPSVSGAPGQRVTISCTGSSSNIGAGYDVHWYQQLPGKAPKLLINANNNRPSGVPDRFSGSNSGTSASLAITGLQAEDEADYYCQSYDKTLSGYVFGLGTTVTVL
notes: VH and VL only
B15: MPK142-v1 (antibody, V domains shown)
VH: EVQLVESGGGLVEPGGSLRLSCAASGFTISGYGMSWVRQAPGKGLEWVSSISASSSYIYYGDAMKGRITISRDNGWNSMYLQMNSLRTEDTAVYYCATAPIEPPYFDLWGRGTLVTVSS
VL: QSVLTQPPSVSGAPGQRVTISCTGSSSNIGAGYDVHWYQQFPGKAPKVLIYGNNNRPSGVPDRFAASNSGASASLAITGLQAEDEAAYFCQSYDRRLSGPVFGGGTKLTVL
notes: VH and VL only
B16: MPK73 (antibody, V domains shown)
VH: EVQLVESGGGLVKPGGSLTLSCAASGFSISGYGMNWVRQAPGRGLEWVASISASSTYIYYADSMKGRFTISRDNGKTSLYLQMKSLRAEDTAVYYCARAPIEPPYFDLWGRGTLVTVSS
VL: QSVLTQPPSVSGAPGQRVTISCTGSNSNIGAGYDVHWYQHLPGKAPKVLIYGNNNRPSGVPDRFSGSNSGASASLAISGLQAEDEADYFCQSYDRRLSGPIFGGGTKLTVL
notes: VH and VL only
B17: MPK136 (antibody, V domains shown)
VH: EVQLVESGGGLVKPGGSLRLSCEASGFSLSGYYMIWIRQAPGKGLEWISSISGSGNYINYADSVKGRFTVSRDNGHNTLYLQMNSLRVEDTAVYYCATEQTPSPGPFDHWGQGTLVTVSS
VL: QVQLVQPPSVSGAPGQRVSISCTGTSSNIGTGYDVHWYQQFPGTSPKLLIYRNTNRPSGVPDRFSGSKSGSSASLAIAGLQAEDEADYYCQSYDRSVSGWVFGGGTKLTVL
notes: VH and VL only
B18: MPK141 (antibody, V domains shown)
VH: EVQLVESGGGLVKPGGSLRLSCAASGFTISGYYMTWIRQAPGKGLEWISYISGSSSYTNYADSVKGRFTISRDNGRNSVYLQMNSLRADDTGVYYCAREETPSPGPFDSWGQGILVTVSS
VL: QSVLTQPPSVSGAPGQRIIISCIGSSSNIGTGYDVHWYQQLPGRAPKLLISRNTNRPSGIPDRFSGSKSGTSASLAITGLQADDEADYYCQSYDRGLDGWVFGGGTKLTVL
notes: VH and VL only
B19: MPK102 (antibody, V domains shown)
VH: EVQLVESGGGLVKPRGSLRLSCAASGFTFSGYFMIWIRQAPGKGLEWVSYISGSSTYTNYADSVKGRFTISRDNGRNTLYLQMNSLRADDTAVYYCATEQTPSPGPFDLWGQGTLVTVSS
VL: QSVLTQPPSVSGAPGQRVTISCTGTSSNIGAGYDVHWYQQFPGTSPKLLIFRNTNRPSGVSDRFSGSKSGSSASLAIAGLQAEDESDYYCQSYDRGLDGWVFGGGTRLTVL
notes: VH and VL only
B20: MPK142-v2 (antibody, V domains shown)
VH: EVQLVESGGGLVEPGGSLRLSCAASGFTISGYGMSWVRQAPGKGLEWVSSISASSSYIYYGDAMKGRITISRDNGWNSMYLQMNSLRTEDTAVYYCATAPIEPPYFDLWGRGTLVTVSS
VL: DIQLTQTPTSLSASVGDRVTFTCRASQNIGFYLNWYQQKPGKAPRLLIYGASNLQSGVPSRFSGSGAGTDFSLTISSLQPEDFATYYCQQSFNTPRTFGQGTKVEIN
notes: VH and VL only
B21: MPK92 (antibody, V domains shown)
VH: EVQLVESGGGLVKPGGSLRLSCEASGISLSGYYMIWIRQAPGKGLEWISSISSSSNYIDYADSVRGRFTISRHNGQNTLYLQMNSLRVEDTAVYFCATEQTPSPGPFELWGQGILVTVSS
VL: QSVLTQPPSVSGAPGQRVTIFCTGTTSNIGTGYDVHWYQQFPGTSPKLLIYRNTNRPSGVPDRFSGSRSGSSASLAIAGLQAEDEADYYCQSFDRSVNGWIFGGGTKVTVL
notes: VH and VL only
B22: MPK130 (antibody, V domains shown)
VH: EVQLVESGGGLVKPGGSLTLSCEASGFSISGYYMIWVRQAPGKGLEWVSSISASDTYIDYAVSVQGRFTISRHNTKNSLYLQMSSLRVEDTGVYYCTREKVPSPGPFDCWGQGTLVTVSS
VL: QSVLTQPPSVSGAPGQRITISCTGTSSNIGAGYDVHWYQHLPGAAPRLLIYVNTNRPSGVPDRFSGARSGTSASLAITGLQAEDEADYYCQSYDRSLGGWAFGEGTKVTVL
notes: VH and VL only

Each binder was assayed against RSV fusion glycoprotein (RSV-F) (respiratory syncytial virus) (assay: SPR; F protein loaded on streptavidin sensors, mAb in solution).
Method: Binding affinity of mAbs for RSV-F protein, MPV-F D280 protein, and MPV-F N280 F variant protein was assessed using surface plasmon resonance (SPR).
B1 gave a Kd of 0.001 nM.
B2 gave a Kd of 0.001 nM.
B3 showed a Kd of 0.58 nM.
For B4, the Kd was 0.012 nM.
With B5 the Kd was 0.001 nM.
Work on B6 yielded a Kd of 0.001 nM.
Work on B7 yielded a Kd of 0.0059 nM.
For B8, the Kd was 0.01 nM.
B9 gave a Kd of 0.0056 nM.
In the case of B10, the Kd is reported as 0.083 nM.
In the case of B11, the Kd is reported as 0.15 nM.
For B12, the Kd was 0.47 nM.
In the case of B13, the Kd is reported as 0.04 nM.
B14 was tested, and the Kd was 1.7 nM.
For B15, the Kd was 100 nM.
B16 was tested, and the Kd was 0.012 nM.
Work on B17 yielded a Kd of 0.001 nM.
For B18, the Kd was 0.13 nM.
With B19 the Kd was 0.096 nM.
With B20 the Kd was 16 nM.
For B21, the Kd was 0.098 nM.
Binder B22 has a Kd of 0.016 nM.
